The values below come from US20160355587A1.

For the experiment, the target named is human CD166 on human cells or tissue (human) (UniProt Q13740). As to the kind of experiment: inhibition of adhesion of CD166-expressing HuT-78 cells to immobilized recombinant CD6.
human CD166 on human cells or tissue (human), sequence (Q13740 28-583): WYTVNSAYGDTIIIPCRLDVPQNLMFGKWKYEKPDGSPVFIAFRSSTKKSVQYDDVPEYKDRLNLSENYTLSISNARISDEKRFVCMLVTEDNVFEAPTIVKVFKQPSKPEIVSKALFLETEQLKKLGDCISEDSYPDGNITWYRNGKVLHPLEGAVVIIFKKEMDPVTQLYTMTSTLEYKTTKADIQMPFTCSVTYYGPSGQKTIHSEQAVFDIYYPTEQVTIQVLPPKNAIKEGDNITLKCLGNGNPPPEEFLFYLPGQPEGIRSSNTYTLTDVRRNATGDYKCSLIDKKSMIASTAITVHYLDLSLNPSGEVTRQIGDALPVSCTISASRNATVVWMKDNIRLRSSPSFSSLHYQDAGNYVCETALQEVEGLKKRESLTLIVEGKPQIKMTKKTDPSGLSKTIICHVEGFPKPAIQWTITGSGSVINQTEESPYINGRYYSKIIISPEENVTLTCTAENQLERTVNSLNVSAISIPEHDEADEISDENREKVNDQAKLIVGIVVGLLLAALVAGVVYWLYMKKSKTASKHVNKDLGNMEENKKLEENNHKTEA

With MAB656 (antibody), the 50% effective concentration (EC50) came to 3.7 nM.
